Results: patent US20150359847A1, “METHOD AND COMPOSITION FOR CONFERRING NEUROPROTECTION” (BLOOD SYSTEMS RESEARCH INSTITUTE, priority 2014, published 2015)

System: S6 Ribosomal Protein (S235/236) in primary hippocampal neurons
Assay: S6 Ribosomal Protein (S235/236) phosphorylation in primary hippocampal neurons
Format: cell-based, mouse
Conditions: 1 μg/ml TIMP3, 15 mins
Experimental: SH-SY5Y cells were obtained from ATCC (Cat# CRL-2266, Manassas, Va.) and were cultured in DMEM and 10% FBS up to passage 10. For differentiation of SH-SY5Y cells into a neuronal phenotype, cells were first plated in DMEEM+10% FBS for 24 hrs before exchanging media in DMEM+1% FBS 10 μM retinoic acid. Differentiation was performed for 3 days before experimentation. Hippocampal neurons were prepared according to the protocol by Beaudoin et al. (Nature Protocols 2012; 7(9):1741-1754) with minor modifications. In brief, after trypsin digestion of hippocampi isolated from P1 mouse pups single cell suspensions was created by trituration and plated onto Biocoat™ poly-D-lysine coated 12-well plates (Cat#354470, BD Biosciences, San Jose, Calif.). […]
Pathscan Antibody™ array kits were purchased from Cell Signaling Technologies (Danvers, Mass.). PathScan® RTK signaling antibody array kit (Fluorescent Readout, Cat#7949) and PathScan™ Akt signaling antibody array kit (Fluorescent Readout, Cat#9700) were performed as per manufacturer's instructions. Imaging was performed on a LI-COR Odyssey™ infrared scanner and pixel densities measured by in house LI-COR Image™ suite software. […]
Lysates was analyzed in conjuncture with the LI-COR Odyssey™ infra-red imaging system. […] After further wash steps images were obtained using a LI-COR™ Odyssey scanner and quantified using LI-COR™ Image Studio software. […]

B1: TIMP3: Recombinant tissue inhibitor of matrix metalloproteinase-3, a soluble protein released by MSCs, obtained from Amgen Inc. (protein)
chain: CTCSPSHPQDAFCNSDIVIRAKVVGKKLVKEGPFGTLVYTIKQMKMYRGFTKMPHVQYIHTEASESLCGLKLEVNKYQYLLTGRVYDGKMYTGLCNFVERWDQLTLSQRKGLNYRYHLGCNCKIKSCYYLPCFVTSKNECLWTDMLSNFGYPGYQSKHYACIRQKGGYCSWYRGWAPPDKSIINATDP
B1 was tested, and the “S6 Ribosomal Protein (S235/236) activation, western blot” value was “activates S6 Ribosomal Protein (S^235/236)” and the “S6 Ribosomal Protein (S235/236) phosphorylation, antibody array” value was “phosphorylates mTORC1 pathway target S6 Ribosomal Protein (S^235/236)”.
